Assay: label from the status in PepcDB records

Row | Sequence | protein production
1 | MDTVVLVLMLLTAFNFLLKQTFWKLIAVGIITAICAVFAGLMWPYAIEQSKTQIANWLSNQPLMLDTSVLLSVEVCIQMAYAMLAVHVANDYPVKPRMILMYRFLRWFPGLLIFPVLFSGLVYLIFAFPGTSFQTIAWSYAAFILAAIPCGRFILLYLLPEKELRLELFFLTNALVAVLGIVATVNGKTSAAGVSEIDWKALTGVIVIALAGGILGLLWWNIRNRNKEKSVKQ | failed
2 | MNHLPEKMRPYRDLLEKSAKEYVKLNVRKGKTGRYDSKIAGDPYFPKHETYPTDENGQPMKLLAQINFSHIPQLDGYPSSGILQFYISVHDDVYGLNFDDRCEQKNFRVIYFENIVENDDELVSDFSFIGTGECDFPILSEAAVEPVKSSEWVLPTDFQFEQYTGMETMEFFGQFGEDEEDIYNELAENGFGHKIGGYASFTQHDPREYAYKEHTIMLLQIDSDDDIDSMWGDVGIANFFITPEDLRKKDFSNVLYNWDCS | not failed
3 | MVREGFDVTLVEARERGGLETSYANGGQLSYRYVAPLADSGVPAQALGWLLRNDAPLRLRPRLDPAQWRWLLGFLAACRGSLNRRNAAHLLRLALLSQRTLQDWREEDGLDGFDWRRNGKLVAFRQPASFARARQGLADPSAQFVLTAAECLALEPALSAAPFVGGIHTPDEEVADCHAFCVQLAERLQASGHCRQLHGRRVTKIVEGGAAVRGVEVGGDLIEADHVVLAAGYRSAELMLPGLRLPLYPLKGYSLTLPVGAQHRAPDTSITDYDRKIVYARIGERLRIAAMVDIVGFDPGLEPARLALLRQQARDTFPQGGDFDAAVEWAGMRPATPTGVPLVGNGGYRNLWLNLGHGALGFTLACGSGRLLAEQIGRRPPSIDTTGLLPRGALAG | failed
4 | MKVKSPLEVYNYLPRTNCGECGFDTCMSFAAHILDRSVTPLDCKPLVRDAEKDPKVKKKLEELLELTAPEIAEVVIGVGENAVKIGGEEVLHRHELTFFNPTGFFYDVWDTMDDKALEERCDRVVSYKKFYVGNFLTLDGFAVRCTSGDPKRYREVVKKVASYGKPLILVALDSECMKAALEEVADQRPLMYAATEGNWKEFLKLALEYKVPVTLRAKDLDLLKSMAVTFKQAGVKDIVLDPVTEPLGEGLKGTFERVIQLRRTAIAGQDKDVAYPIMITPIAAWLIEGDDVTKSYWEAVIASIFIVKYGDVMIFRSIDQHVVMPTITLRFNIYTDPRTPVQVEPGLRAINDPGPDDPVFITTNFALTYYTVESDLTSGGIKGWLLVLNTEGLGVEVSVAGGQFTASKVKELIEETKIEEKVNHRYLVIPGLAARLQGAIEDETGWKVLVGPMDSGRIKGWLEKNWPPKE | not failed
5 | MTMYADLVLHGGSIATLDDKLEQAQAVAIAAGRIIAVGSDAHCLALAGPGTRRIGLGGACVMPGINDSHCHPDGQAVKAGRWDDVSQVATQQALLARIADFHRRMPAGAWYLGFRFDDTHSGGYPARQALEQAAPGRPVFLLRRDAQVGLASAPALAALLASGLATQVPPHCLDAATGLARGRGVFAFTTHIAAADSLDDYLEGFPTLFAEMGRMGITSVHNALTSALAVQAYRALHGAGRLPVRVGMMLNGRDQRLVDETLAAGLRFGAGDDRLYLLGVEYGSDGSTSGRTAAYYQPYVGEEGGDGRPANRGDVNFSAEDLAAKVGRVMAAGLQAAATGNGDRGIDFALDAFEQGLRAHPGAVPPRIEHCCCAPPAIQQRMAALGVIDSSAAGFAYNLGDAYLRNRPSAEMAWMWPHRDMLDRGVLVCAHSDAPVCERNPFLGMWSMVTRKTASGASLGAGQAITPLEAMRCYTANPARAEGQAARKGTLSPGKLADLIVLDRDPCAVDPDEIRHTQVLATLVGGQATYRAAGAPSWADELPMRE | failed
6 | MTTRDRTAIFKRYREESVVAKRKRSGNDGIQTIGNQSLSGNHKELAPFLNKGSIQTDSHTVFLPPQWLDWYEELSNSVDSVTHQLAQLESLQQNHLLPGFEERSDEESQISELSRNITLLLQRSQERIRLLAPSSSEPNISSEEKLLRTNAQKYFASKLQELSLSFRRNQKEYLRKLQGQNALVEESTDENPLSTSLELEEYDPGFTQEQVMLLENSDQVASERQREIMKIASSINDLATIVKDIASLVIDQGTLLDRIDYNVEEIEVSTEGAVKELEKAKRSQKKG | failed
7 | MNGFVQWMEVKLMPIANKFGSQRHMTAIRKGLIATMPLTIVGSFFTIFQNIPIEAYTKLIEPYQAILDIPSRYTMGLLALYATFGIASSLAKSYKLDSLTCGILALMAFLVTAAPPTRVFEDVDNVITAGRYINLANLGSASLFGAIVTALLSVEIYRFFIEKDIMIKMPDGVPPEVSNSFIALIPGAVILLLFWVIRHVIGFDLNGFLSTLLMPLKGILAGNSLFGGLLTVFLICFFWVLGIHGPAIMGPVIRPFWDMSIAENLEAFTNGANVHQLPNIFTEQFLQWFIWIGGAGTTLSLVVLMMFSKSTYLKSLGRLSFLPGLFNINEPVIFGTPIVMNPILGIPFIVAPLITTTLSYFLTVANIIPMMAARLAFAIPAPIAAWMSTNWSFSAAVLVIVNFLITMAIYYPFFKVYEKQQLDKEAEELAAEQAAKN | failed
8 | MSDEQHDSVWPPPGLDFSKPTIARVYDALLGGKDNFEADRALADYACKHIPGLKESAIENRKVLVRGVRFLAGEAGISQFLDLGSGLPTVQNTHEVAQSVNPDARVVYVDIDPMVLTHGRALLAKDPNTAVFTADVRDPEYILNHPDVRRMIDFSRPAAIMLVGMLHYLSPDVVDRVVGAYRDALAPGSYLFMTSLVDTGLPAQQKLARITRENLGEGWARTPEEIERQFGDFELVEPGVVYTALWRPDEPVDPDNLSPGEQLGMAGIGRKKA | not failed
9 | MVNFEEMTFENIMESMLDAVPATLDKREGSMIWNSLAPAASQIALLYTWLENAFELVFYDTAPDEFLDRAAAPYGVIRKPAVATQRIIKGIDENDNKIEIPEGSRFFVESENIYFKVTSSTILEQVVECEVAGTKGNADFSNDTILSLDNIYGLAKVEIGDILIPGSDEEELETFRKRFFTKIQKDAFSGNKNHYKLWAEEVLGVGKAKIYPLGYGEGTVKIVITDTNLHPASPTLVEQVRNYIDPLPQKGEGVAPIGAKVFIESAAWKTINISGQLVLKDGKSVNDVIEEITMDINKLFKSITFPEDELTSVKLAVISNIIFSAPSVLDNFNIKLNNEAANIILAENEVPQLGAFSFELILEHHHHHH | failed
10 | MPGAMHDEPDHPELSITVPTLNEAEGLERFFAMLSAQQGVRFELVIADGGSTDGTPESARRLAAATPFAATVIETGRGRGRQMNAGAAAAAGDTLLFLHADCAFPDPLALRTALDAFTQTVAAGGSHRVAGHFRLRFERTDSAPSLPYYFYEWKARLHRPGCTHGDQGLLLGRRFFAEAGPFDESFPILEDVGLAERIAALGEWLLLPAEIVTSARRFEAEGLRERQTLNALLMNFAAMGWDPFLAELPRLYQSQDRAGRLLLGPVLRLIARLLRPLPRRERGRLWRETGRYVRANAWQIPFFLDVRRHFRQGTPVGEGETPRLDLHDRIFDRLTENGAGHRATALLVWIWFRLSLLREPLTPPAARNPEGNGSLEHHHHHH | not failed
11 | MIPPELDMSLLLEFIGANEGTGHFKPLEKKFVRVSGEATIGHVEKFLRRKMGLDPACQVDIICGDHLLEQYQTLREIRRAIGDAAMQDGLLVLHYGLVVSP | not failed
12 | MSDKQRVREQKHAWIYLFNLGFYILPMVLFPYQVWEIAVMVAALLVFIGLYYCCYSVPRQQMLWPILGMYIIACAVTPLNPGSIALFSYAGFFVGFAYNWRVALAAVAGIILTLATFHFGPGTSWDLFLPYGIVIVGTVSIFGRVERLRQQHAEEQERDAEEIERLATSVERERIARDLHDILGHTLSSIILKSDLAKAQLSKQRYDEASEQLVELSEIARESLSQVRQSVSGYKHGGLQLELRRLEQRLTDGGFSTRITGTPPIIDERRETSLVLAITELVTNIIRHSNGQQCLIHFDETANTYCIKVVDNGRCHDVSVGNGLSGVELRIQELGGSMSISTNKGCEVALFLPKLAEQQP | failed
13 | MIIAGLDVGTTKVTTVIGELAPDGVLDIIGEGTVPSQGLRRGVVVNLERTTEAIRQSLFQAERVAGVKVERVVVGVGGPHLKSVTSHGLAAIRRGHTIAEADVERAIEQAKAYPFEGELELLHALPLEFKVDGQEGIRDPVGMAGVRLEVDVHLIAAGRGPLANLRRAVEEAGLALDAVCVQALASGLAVLTPEEEEMTVLLLDIGGGTTDVAVFRGGRLAHSAVVPLGGDHVTHDIAQLLKIPFEEAERVKRKYGAALPELADPELVLEINQEGGALGEVPAPELARIIRPRMREILHLARQSVDETLGPLEIQVNRVVLTGGGALLRGTDLLARQQYGLPVRVGKPQGVSGLTDVVASPAHAAAVGLVRYGASLPLKPQEAKRIREKPEDKPKGEGLWARIKEFLSNLF | failed
14 | MPDNFLIVPSADVQGGRLTTLSNAISTTDLNLTVTGLSNDTELVVYQLSTGVIGTPQAAAQPRETHVFALMGQSNMIGRAAFDGGAKWPDGTLQIGRGGDEDGAIIPARNPADGPATSRPLAHTGARLGNMGLDIQFAIDYLSDKPDVTLLFIPCAQGATGFSNGAWNPGDWLYNRETARINAAMNANPEFLFQGFLWHQGETDTGIPGTYGGLLDNLIAGLRRDVTAATPTTPFILGGLAAGNAGRDAITGIIAATPGRVPYTAFAPTADLSLTDANHFDAASFRTLGARYAAALASAAANQPGAPGIPTGLSAVAGDTEVTLSWSAPANTGGTALSDYIIERDSGSGFAALADGTGTTTGYTDSGLSNGTTYAYRVRAVNGTGTGAATPPQSATPAAPATGPVAEAGAQAHWLFGADNPTYADLVSGRIATGPAHALEAAYMTSPAGIRQGRDTGIAEADAQTMCFVFQLAGSANSMIGGTLTTSGSNGVSPYTSATTGIYANMRGGWGNPAISSASPYRTQFVFAAVSKNVATGNYVLFAGNGAGHDVLTGTSAQTTSPRTIGIGNLHFDRANFSGQISIAEAILFDSAKTEIELTEIYDRSRTRLAARGLTVV | failed
15 | MILNLDTNIFNHGLSRHNILAFSQGFPIGLPCRNWIEVGLRLRLRLLLELAVGNFPQGFKIHLSGSFQAVRLALFSSFTSLRTDELLLIETRPSYLSSVQVWGKGRPLLLLLTKREQPALQANREPPARFESLRAGKQEEADRAKASPLLASALPEAVEVGTRSRRSRGSSCGFRVKLAHCQKANRSSYLDQRTLIPGRQQGLRVEGMNQVSWLRIGGMGVRSVPSSPSPRLRLLETGDRVFLRRLAASPFNKGFQWQQTAPQDEAKNGVGGLPVVRASKWLAGPRKHNERDDRSSTRPEIDVLLP | failed
16 | MNEDALTFLSRQHPYDELPAGVLNDVAAQVEKLSVAEGEMIYAYGEPLEGLYIIQSGLVDVRDQSDTQVSMLERGNSFGERGLLADGNAVTSARAVRDTLLIRVPVSLFNTLRTEQSPFQRFFARSSARPDKSATQQTSLAQVSVDALMVRNPVTCTPGTSVVDAAVLMTSRRISCLCITEEDRLTGIVTLRDLVGKALAAGLPPQTPLSDIIQNEPVSLPPTAIGSDVLHMMMEYNLGHLPIVDAGKLVGIVTQTDLTRYQATTAAGLVADAARAQSVEALADITGRIPALLVQLVAAGNRHDVVTRMITDIADVVTRRLLNMAEEKLGPAPLRYLWLACGSQGRQEQTGVSDQDNCLILEDGASRDDIAYFHEMATFVSDGLNACGYVYCPGDMMATNPRWCQPLSVWKEYFNGWIKSPSKEAQMLASVMFDLRPIGGDASLFHGMQQATLEKAAKNSIFTAHMASNSLTHQTPLGLLRGLATISSGDHRKTIDTKLNGVVPVVDLGRMYALQGKLTVANTRARLIAALNNKTISAKGGRDLLEAYDLVAQTRLEHQARLIKEGKAPDNYLPPARLSDFERSHLRDAFVVIKTMQSALMQGRGILG | failed

From a protein production outcome set (Wang et al. 2014)
